From patent publication US20200368361A1 (Regeneron, published 2020)
Numbering of substitutions follows the chain as printed. Names may count otherwise.

B1: H1H27736P-N297Q (antibody, human IgG1, V domains shown)
VH: EVQLVESGGGLVQPGGSLRLSCAASGFTFSSYAMSWVRQAPGKGLEWVSSISGSGDSTFYTDSVKGRFTISRDISKNTLYLQMNSLRAEDTAVYYCAKDRLLWFGDLISPFHYWGQGTLVTVSS
VL: EIVLTQSPGTLSLSPGERATLSCRASQSVSNIYLAWYQQKPAQAPRLLIYGASSRATGIPDRFSVSGSGTDFTLTISRLEPEDFAVYYCQQYGSSPRTFGQGTKVEIKR
notes: human IgG1 Fc with N297Q
B2: H1H27749P-N297Q (antibody, human IgG1, V domains shown)
VH: QVQLQESGPGLVKPSETLSLTCTVSDGSISSYYWSWIRQPPGRGLEWIGFIYYSGSTSYNPSLKSRVTISVDTSMSQFSLKLRSVTAADTAVYYCARGSPFDYWGPGTLVTVSS
VL: EIVLTQSPGTLSLSPGERATLSCRASQSVSSSYLAWYQQRPGQAPSLLISGASRRATGIPDRFSGSGSGTDFTLTIRRLEPEDFAMYYCQQYGSSPPTFGGGTKVEIKR
notes: human IgG1 Fc with N297Q
B3: H1H27756P-N297Q (antibody, human IgG1, V domains shown)
VH: QVQLVESGGGVVQPGRSLRLSCAASGFTFSNYDMHWVRQAPGKGLEWMAVISYDGINKYYADSVKGRFTISRDNSKNTLYLQMNSLRAEDTAVYYCAKGTYSWYFDLWGRGTLVTVSS
VL: not shown
notes: human IgG1 Fc with N297Q
B4: H1H27760P2-N297Q (antibody, human IgG1, V domains shown)
VH: EVQLVESGGGLVQPGRSLRLSCAASGFTFDAYAMHWVRQAPGKGLEWVSGISWNSGSIGYADSVKGRFTISRDNAKNSLYLQMNSLREEDTALYYCAKDKILELYYYGMDVWGQGTTVTVSS
VL: not shown
notes: human IgG1 Fc with N297Q; also called H1H27760P-N297Q
B5: H1H27732P-N297Q (antibody, human IgG1, V domains shown)
VH: QLQLQESGPGLVKPSETLSLTCTVSGGSISSSTYYWGWIRQPPGKGLEWIGSFYYSGSTYYNPSLKSRVTISVGTSKNQFSLKLSSVTAADTAVYFCARGGLLGRPFVIWGQGTMVTVSS
VL: DIQMTQSPSSLSASVGDRVTITCRASQGIRNDLGWYQQKPGKAPKRLIYAASSLQSGVPSRFSGSGSGTEFTLTISSLQPEDFATYYCLQHNSYPLTFGGGTKVEIKR
notes: human IgG1 Fc with N297Q
B6: H1H21231N-N297Q (antibody, human IgG1, V domains shown)
VH: EVQLVESGGGLVQPGGSLRLSCAASGFTFSDHYMDWVRQAPGKGLEWVGRTRNKANSHTTEYTASVTGRFTISRDDSRNSLYLQMNSLKTEDTAVYYCVRAGIIGTLFDYWGQGTLVTVSS
VL: DIQMTQFPSSLSASVGDRVTITCRASQSISSFLNWFQQKPGKAPKFLIYAASSLQSGVPSRFSGSGSGTDFTLTISSLQPEDFATYYCQQSYSSPPITFGQGTRLEIKR
notes: human IgG1 Fc with N297Q
B7: H2aM25695N (antibody, mouse IgG2a, V domains shown)
VH: QVQLQESGPGLVKPSETLSLTCTVTGGSISRNYWSWIRQPPGKGLEWIGYIYYSGSINYNPSLKSRVTISVDMSKNQFSLKLNSVTAADTAVYYCARDRWNWKYGMDVWGQGTTVIVSS
VL: B1 VL with S28T, S30R, I32S, Q38H, A42G, V65G, P96Y, R97W, V105M
notes: mouse IgG2a Fc
B8: H1xH29283P2 (antibody, V domains shown)
VH: QVQLVQSGTEVKKPGSSVKVSCKASGGTFSRYTFSWVRQAPGQGLEWMGGIIPIFGTTNYAQKFQGRVTITTDESTSTVYMELSSLRSEDTAVYYCTRGGRYGWFDPWGQGTLVTVSS
VL: not shown
notes: prefix H1xH not explained for the anti-MSR1 antibodies
B9: H1H21234N-N297Q (antibody, V domains shown)
VH: B7 VH with N58D, M73T, N83S, V85M
VL: EIVLTQSPGTLSLSPGERATLSCRASQTVRNNYLAWYHQKPGQAPRLLIYGASSRATGIPDRFSGSGSGTDFTLTISRLEPEDFTVYYCHQYGNSPWTFGQGTKMEIKR
B10: H1H21234N (antibody, V domains shown)
VH: B7 VH with N58D, M73T, N83S, V85M
VL: B9 VL
B11: H2aM25695N (antibody, V domains shown)
VH: B7 VH
VL: B9 VL with N32S, T85A, H90Q, N94S, P96Y
B12: H1H27729P-N297Q (antibody, V domains shown)
VH: QVQLVESGGGLVKPGGSLRLSCAASGFIFSDYYMSWIRQAPGKGLEWVSYISSSGTTIYGDSVKGRFTMSRDNAKNSLYLQMNSLRAEDTAVYYCARNYALFDYWGQGTLVTVSS
VL: DIQMTQSPSSLSASVGDRVTITCQASQDISKYLNWYQQKPGKAPKLLIYYTSNLETGVPSRFSGSGSGTDFTFTISSLQPEDIATYYCHQSDYLPFTFGPGTKVDIKR
B13: H1H27731P-N297Q (antibody, V domains shown)
VH: QLQLQESGPGLVKPSETLSLTCTVSGGSISRISYYWGWIRQPPGKGLEWIGSIYDSGSTYYNPSLKSRVTISIDTSKNQFSLKLSSVTAADTAVYYCVRYSSSSAFAFDYWGQGTLVTVSS
VL: DIQMTQSPSSVSASVGDRVTITCRASQGISSWLAWYQQKPGKAPKLLIYAASSLQSGVPSRFSGSGSGTDFTLTISSLQPEDFATYYCQQANSFPFTFGPGTKVDIKR
B14: H2aM25700N (antibody, V domains shown)
VH: QVQLVQSGSEVKKPGASVKVSCKVSGYTLTELSIHWVRQAPGKGLEWMGGFDPEDGETIYAQKFRGRVTMTEDISPDTAYMELSSLRSEDTAVYYCATPRYCNNGICYDYWGQGTLVTVSS
VL: B6 VL with F7S, V15I, F32Y, F36Y, K45M, F46L, P80T, S94T
B15: H2aM21227N (antibody, V domains shown)
VH: QVQLVQSGAEVKKPGASVKVSCKVSGYTLTELSIHWVRQVPGKGLEWMGGFDPEEGETIFAQEFRDRVTLTEDTSPDTAYMELSSLKSEDAAVYYCTTPRYCNNGICYDYWGQGTLVTVSS
VL: B6 VL with F7S, S31N, F32Y, F36Y, F46L, A50T, P80T, S94N, P95F
B16: H1H21227N (antibody, V domains shown)
VH: B15 VH
VL: B6 VL with F7S, S31N, F32Y, F36Y, F46L, A50T, P80T, S94N, P95F
B17: H1H21231N (antibody, V domains shown)
VH: B6 VH
VL: B6 VL
B18: H1H21227N-N297Q (antibody, V domains shown)
VH: B15 VH
VL: B6 VL with F7S, S31N, F32Y, F36Y, F46L, A50T, P80T, S94N, P95F

molecular target: T1, mouse MSR1 on RAW264.7 cells (mouse, UniProt P30204 1-458); experiment: flow cytometry, RAW264.7 cells, 10 ug/mL;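 further: antibodies bound to RAW264.7 cells for 30 min on ice after Fc block with mouse IgG, S/N is MFI relative to unstained cells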
T1 construct: whole, on cells
T1 sequence (looked up): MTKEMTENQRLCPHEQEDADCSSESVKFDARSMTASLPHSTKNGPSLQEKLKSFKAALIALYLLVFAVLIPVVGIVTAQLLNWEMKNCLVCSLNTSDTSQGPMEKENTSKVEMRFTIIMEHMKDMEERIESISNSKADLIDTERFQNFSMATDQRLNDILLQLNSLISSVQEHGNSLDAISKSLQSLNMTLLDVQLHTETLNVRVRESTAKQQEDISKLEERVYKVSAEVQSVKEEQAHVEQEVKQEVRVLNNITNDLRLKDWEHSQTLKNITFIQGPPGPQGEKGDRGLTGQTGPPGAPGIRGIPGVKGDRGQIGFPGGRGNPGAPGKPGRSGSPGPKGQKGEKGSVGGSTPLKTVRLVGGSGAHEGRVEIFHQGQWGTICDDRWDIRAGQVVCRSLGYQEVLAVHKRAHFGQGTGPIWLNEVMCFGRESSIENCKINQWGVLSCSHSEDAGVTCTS
Procedure: To block binding to Fc receptors, RAW264.7 cells were incubated for 30 minutes at 4° C. with 500 μg/mL mouse IgG (Jackson ImmunoResearch, Cat #015-000-003) diluted in staining buffer, while B16F10.9 cells remained in staining buffer. Following Fc receptor blocking, 10 μg/mL of anti-MSR1 antibodies or an isotype control antibody were added to the cells and were subsequently incubated for 30 minutes on ice. […] The signal to noise (S/N) was determined by calculating the ratio of the anti-MSR1 antibodies or the control antibodies MFI to the unstained sample MFI (Table 16).

Binder	MFI	S/N
B1	3550	
B2	3790	
B3	4570	
B4	3430	
B5	3420	
B6	3580	1

molecular target: T2, full length human MSR1 with a C-terminal Myc tag on HEK293.Myc.hMSR1 cells (human, UniProt P21757 1-451); experiment: ECL cell binding, HEK293.Myc.hMSR1
T2 construct: whole, on cells
T2 sequence (looked up): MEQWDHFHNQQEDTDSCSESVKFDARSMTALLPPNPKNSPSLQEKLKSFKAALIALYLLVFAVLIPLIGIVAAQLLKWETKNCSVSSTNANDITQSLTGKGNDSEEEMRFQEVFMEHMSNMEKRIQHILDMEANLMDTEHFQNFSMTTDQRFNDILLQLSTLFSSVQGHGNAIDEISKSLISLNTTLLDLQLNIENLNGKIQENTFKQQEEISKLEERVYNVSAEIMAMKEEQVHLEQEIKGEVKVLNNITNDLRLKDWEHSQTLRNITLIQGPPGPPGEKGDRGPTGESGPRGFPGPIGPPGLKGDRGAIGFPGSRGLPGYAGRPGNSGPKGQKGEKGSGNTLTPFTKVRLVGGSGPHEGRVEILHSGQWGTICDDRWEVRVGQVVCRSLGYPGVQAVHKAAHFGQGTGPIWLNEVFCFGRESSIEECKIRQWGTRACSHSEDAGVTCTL
Procedure: (§1) All cells were washed once with 1×PBS with Ca²⁺/Mg²⁺ and counted with a Cellometer™ Auto T4 cell counter (Nexcelom Bioscience). Approximately 1.0×10⁴ cells were seeded separately onto 96-well carbon electrode plates [MULTI-ARRAY high bind plate, Meso Scale Diagnostics] and incubated for 1 hour at 37° C. Non-specific binding sites were then blocked by 2% BSA (w/v) in PBS with Ca²⁺/Mg²⁺ for 1 hour at room temperature. THP-1 cells were pre-incubated for 0.5 hours at room temperature in sample dilution buffer with: 1) 1 mg/mL Fc receptor block reagents to block Fc gamma receptors on THP-1 cell surface [whole molecule human IgG (Jackson Immunoresearch, Cat #009-000-003) for wells being tested with anti-MSR1-mFc antibodies or 2) whole molecule mIgG (Jackson Immunoresearch, Cat #015-000-003) for wells being tested with anti-MSR1-hFc antibodies. Antibody binding on HEK293.Myc.hMSR1, HEK293.mfMSR1 and HEK293 cells was tested without Fc receptor block reagents. […] Plates were then washed to remove unbound antibodies an AquaMax2000 plate washer with a cell washing head (MDS Analytical Technologies). […] Plates were washed and developed with Read Buffer (Meso Scale Diagnostics, Cat #R92TD-2) according to manufacturer's recommended procedure and luminescent signals were recorded with a SECTOR Imager 600 (Meso Scale Diagnostics). Luminescence intensity, measured in relative light units (RLU), was recorded to indicate the binding intensity of each antibody at the range of concentrations.

Binder	binding signal ratio to isotype control (11 nM)
B7	35 fold
B8	26 fold

molecular target: T3, human MSR1 with a C-terminal Myc tag expressed on HEK293.Myc.hMSR1 cells (human, UniProt P21757 1-451); experiment: cell-based or functional assay
T3 sequence (looked up): T2 sequence (looked up)

Binder	IC50 of inhibition of Dil-Acetylated LDL uptake	IC50 of inhibition of Dil-Oxidized LDL uptake	% Inhibition of Dil-Acetylated LDL uptake	% Inhibition of Dil-Oxidized LDL uptake
B9	1.3 nM	6.1 nM		
B10	0.71 nM	4.3 nM		
B11	> 170 nM	> 16 nM		
B12	1.2 nM			
B13	1.8 nM	> 10 nM		
B14	2.4 nM		79%	91%
B15	3.7 nM	3.1 nM		
B16	2.1 nM	2 nM	65%	89%
B17	3.5 nM	3.6 nM	63%	78%
B18	2.4 nM	1.8 nM	65%	94%

molecular target: T4, full length monkey MSR1 on HEK293.mfMSR1 cells (Macaca fascicularis, UniProt A0A2K5UWE2 1-451); experiment: ECL cell binding, HEK293.mfMSR1
T4 construct: whole, on cells
T4 sequence: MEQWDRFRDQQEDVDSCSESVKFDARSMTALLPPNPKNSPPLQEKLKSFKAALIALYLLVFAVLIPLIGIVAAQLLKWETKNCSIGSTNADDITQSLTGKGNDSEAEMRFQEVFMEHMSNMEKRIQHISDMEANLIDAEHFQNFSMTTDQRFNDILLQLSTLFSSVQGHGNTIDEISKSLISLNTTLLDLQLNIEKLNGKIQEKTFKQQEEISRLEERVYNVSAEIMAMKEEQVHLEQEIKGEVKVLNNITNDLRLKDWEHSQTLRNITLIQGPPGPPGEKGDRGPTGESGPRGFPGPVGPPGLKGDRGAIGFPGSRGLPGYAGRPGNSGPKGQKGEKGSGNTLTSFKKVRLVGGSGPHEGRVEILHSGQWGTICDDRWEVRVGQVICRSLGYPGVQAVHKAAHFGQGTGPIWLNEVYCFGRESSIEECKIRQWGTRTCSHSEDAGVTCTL
Procedure: as §1

Binder	binding signal ratio to isotype control (11 nM)
B7	45 fold
B8	24 fold
